In patent US20250195685A1 (CAPSTAN THERAPEUTICS, published 2025):
Positions count from the first letter of the chain named. In names and notes the source's numbering stands.

Key:
[1] = target: T1, human CD8αα homodimer, recombinant protein (Acro Biosystems) (human, UniProt P01732 22-182); test: BLI kinetics, F(ab) on biotinylated CD8α (SA-XT sensor), 1:1 fit, 30 °C
T1 construct: also called CD8αα antigen; biotinylated CD8α recombinant protein (CDA-H82E3)
Method: (§1) Biolayer interferometry kinetic assays were performed using a GatorBio Gator Plus BLI system. Kinetic buffer containing PBS plus 0.1% Tween 20 and 0.2% BSA was used for calculating the baseline. To measure the binding kinetics of anti-CD8α antibody fragment (Fab), streptavidin-immobilized SA-XT sensors (#160029, Gator Bio) were prehydrated in the kinetic buffer and loaded with […] biotinylated CD8α recombinant protein (CDA-H82E3, Acro Biosystems) at a spin speed of 400 rpm to a threshold response of 10 nm. The sensors were then incubated in the kinetic buffer for 300 s to acquire a baseline measurement prior to each association. […] The antigen-loaded sensors were incubated in the diluted solutions to capture Fab fragments for 300 s to record the association phase. Sensors were finally incubated in the kinetic buffer for 900 s to record the dissociation phase. The spin speed for all steps except the antigen loading step was 1000 rpm. The temperature of the performed assays was either 30° C. or 37° C. during the association and dissociation phases. Sensor data were baseline subtracted, and global curve fitting of the kinetic data from six different analyte concentrations at a 1:1 monovalent binding model was performed using GatorOne software (version v2.10) to determine kinetic rate constants (kₒₙ and koff) and equilibrium dissociation constants (KD) of the analyzed antibodies.

[2] = target: T1, human CD8αα homodimer, recombinant …; test: BLI kinetics, F(ab) on biotinylated CD8α (SA-XT sensor), 1:1 fit, 37 °C [CONT'ED]
Method: as §1

[3] = target: T1, human CD8αα homodimer, recombinant …; test: BLI kinetic assay, engineered F(ab') fragment
Method: The global fitting was performed with a 1:1 fitting model using GatorOne software as described below.
as §1

[4] = target: T1, human CD8αα homodimer, recombinant …; test: BLI kinetic rate analysis, Fab fragment (temperature not given)
Method: as §1

T1 sequence (P01732 22-182 limits assumed): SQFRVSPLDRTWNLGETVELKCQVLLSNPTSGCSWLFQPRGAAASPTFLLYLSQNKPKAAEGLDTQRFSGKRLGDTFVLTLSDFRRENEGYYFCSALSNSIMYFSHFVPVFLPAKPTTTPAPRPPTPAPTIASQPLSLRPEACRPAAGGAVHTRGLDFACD

B1: CBD1032 (Fab, V domains shown)
VH: QVQLVQSGAEVKKPGASVKVSCKASRYTFTDYNLHWVRQAPGQGLEWMGFIYPYNGGTGYAQKFQGRVTMTRDTSTSTVYMELSSLRSEDTAVYYCARDHRYNEGVSFDYWGQGTTVTVSS
VL: DIQMTQSPSSLSASVGDRVTITCRASESVDGFGNSFMNWYQQKPGKAPKLLIYLASNLESGVPSRFSGSGSGTDFTLTISSLQPEDFATYYCQQNNEDPYTFGQGTKLEIK
notes: also called h1017-H1/L1 F(ab)
[1]
  Kd: 1.84 nM
  koff: 9.45e-05 s⁻¹
  kon: 51500 M⁻¹ s⁻¹
[2]
  Kd: 1.59 nM
  koff: 5.35e-05 s⁻¹
  kon: 33700 M⁻¹ s⁻¹

B2: CBD1033.44 disulfide-engineered F(ab') analog (IgG1, truncated T238) (Fab, V domains shown)
VH: B1 VH with R72V, V79A
VL: DIQLTQSPSSLSASVGDRATITCRASESVDGFGNSFMNWYQQKPGKAPKLLIYLASNLESGVPSRFSGSGSGTDFTLTISSVQPEDFATYYCQQNNEDPYTFGQGTKLEIKR
notes: also called .44 design
[3]
  Kd: 7.23 nM
  koff: 8.88e-05 s⁻¹
  kon: 12300 M⁻¹ s⁻¹

B3: CBD1033.42 disulfide-engineered F(ab') analog (IgG1, truncated P240) (Fab, V domains shown)
VH: B1 VH with R72V, V79A
VL: B2 VL
notes: also called .42 design
[3]
  Kd: 5.09 nM
  koff: 6.41e-05 s⁻¹
  kon: 12600 M⁻¹ s⁻¹

B4: CBD1034 (Fab, V domains shown)
VH: B1 VH with R72V, V79A
VL: B1 VL with M4L, V19A, G72R, L82V
notes: also called h1017-H2/L3 F(ab)
[1]
  Kd: 9.9 nM
  koff: 0.000204 s⁻¹
  kon: 20900 M⁻¹ s⁻¹
[2]
  Kd: 1.82 nM
  koff: 0.000187 s⁻¹
  kon: 103000 M⁻¹ s⁻¹

B5: CBD1622 Fab (VL D30S and VH N55Q of CBD1033) (Fab, V domains shown)
VH: B1 VH with N55Q, R72V, V79A
VL: B1 VL with M4L, V19A, D30S, L82V
notes: also called D30S and N55Q
[4]
  Kd: 2.91 nM
  koff: 9.97e-05 s⁻¹
  kon: 34300 M⁻¹ s⁻¹

B6: CBD1035 (Fab, V domains shown)
VH: B1 VH with V20I, M48I, V68A, M70L, R72V, V79A, V117L
VL: B1 VL with M4L, V19A, L82V
notes: also called h1017-H3/L2 F(ab)
[1]
  Kd: 3.07 nM
  koff: 0.000144 s⁻¹
  kon: 46900 M⁻¹ s⁻¹
[2]
  Kd: 8.02 nM
  koff: 9.12e-05 s⁻¹
  kon: 11400 M⁻¹ s⁻¹

B7: CBD1445 Fab (VL D30A of CBD1033) (Fab, V domains shown)
VH: B1 VH with R72V, V79A
VL: B1 VL with M4L, V19A, D30A, L82V
[4]
  Kd: 15.6 nM
  koff: 0.00048 s⁻¹
  kon: 30700 M⁻¹ s⁻¹

B8: CBD1033.45 disulfide-engineered F(ab') analog (IgG1, truncated T238, C233S) (Fab, V domains shown)
VH: B1 VH with R72V, V79A
VL: B2 VL
notes: also called .45 design
[3]
  Kd: 9.03 nM
  koff: 0.000117 s⁻¹
  kon: 13000 M⁻¹ s⁻¹

B9: CBD1039 (Fab, V domains shown)
VH: B1 VH with V20I, M48I, V68A, M70L, R72V, T74Y, V79A, V117L
VL: B1 VL with M4L, V19A, L82V
notes: also called h1017-H5/L2 F(ab)
[1]
  Kd: 3.11 nM
  koff: 0.000157 s⁻¹
  kon: 50400 M⁻¹ s⁻¹
[2]
  Kd: 4.59 nM
  koff: 9.27e-05 s⁻¹
  kon: 20200 M⁻¹ s⁻¹

B10: CBD1038 (Fab, V domains shown)
VH: B1 VH with R72V, T74Y, V79A
VL: B1 VL with M4L, V19A, G72R, L82V
notes: also called h1017-H4/L3 F(ab)
[1]
  Kd: 2.31 nM
  koff: 0.000146 s⁻¹
  kon: 63300 M⁻¹ s⁻¹
[2]
  Kd: 7.42 nM
  koff: 0.00014 s⁻¹
  kon: 18900 M⁻¹ s⁻¹

B11: CBD1037 (Fab, V domains shown)
VH: B1 VH with R72V, T74Y, V79A
VL: B1 VL with M4L, V19A, L82V
notes: also called h1017-H4/L2 F(ab)
[1]
  Kd: 1.72 nM
  koff: 0.000114 s⁻¹
  kon: 66000 M⁻¹ s⁻¹
[2]
  Kd: 1.27 nM
  koff: 9.71e-05 s⁻¹
  kon: 76800 M⁻¹ s⁻¹

B12: CBD1443 Fab (VL D30E of CBD1033) (Fab, V domains shown)
VH: B1 VH with R72V, V79A
VL: B1 VL with M4L, V19A, D30E, L82V
[4]
  Kd: 10 nM
  koff: 0.000284 s⁻¹
  kon: 28400 M⁻¹ s⁻¹

B13: CBD1623 Fab (VL D30S and VH N55A of CBD1033) (Fab, V domains shown)
VH: B1 VH with N55A, R72V, V79A
VL: B1 VL with M4L, V19A, D30S, L82V
notes: also called D30S and N55A
[4]
  Kd: 0.617 nM
  koff: 7.02e-05 s⁻¹
  kon: 114000 M⁻¹ s⁻¹

B14: CBD1381 (Fab, V domains shown)
VH: B1 VH with N55Q, R72V, V79A
VL: B1 VL with M4L, V19A, L82V
[4]
  Kd: 1.22 nM
  koff: 9.59e-05 s⁻¹
  kon: 78600 M⁻¹ s⁻¹

B15: CBD1380 (Fab, V domains shown)
VH: B1 VH with N55S, R72V, V79A
VL: B1 VL with M4L, V19A, L82V
[4]
  Kd: 1.93 nM
  koff: 0.000116 s⁻¹
  kon: 59900 M⁻¹ s⁻¹

B16: CBD1382 (Fab, V domains shown)
VH: B1 VH with N55A, R72V, V79A
VL: B1 VL with M4L, V19A, L82V
[4]
  Kd: 0.86 nM
  koff: 6.91e-05 s⁻¹
  kon: 80300 M⁻¹ s⁻¹

B17: CBD1040 (Fab, V domains shown)
VH: B1 VH with V20I, M48I, V68A, M70L, R72V, T74Y, V79A, V117L
VL: B1 VL with M4L, V19A, G72R, L82V
notes: also called h1017-H5/L3 F(ab)
[1]
  Kd: 6.07 nM
  koff: 0.00017 s⁻¹
  kon: 28000 M⁻¹ s⁻¹
[2]
  Kd: 7.39 nM
  koff: 0.000103 s⁻¹
  kon: 14000 M⁻¹ s⁻¹

B18: CBD1444 Fab (VL D30S of CBD1033) (Fab, V domains shown)
VH: B1 VH with R72V, V79A
VL: B1 VL with M4L, V19A, D30S, L82V
[4]
  Kd: 7.69 nM
  koff: 0.000196 s⁻¹
  kon: 25500 M⁻¹ s⁻¹

B19: CBD1036 (Fab, V domains shown)
VH: B1 VH with V20I, M48I, V68A, M70L, R72V, V79A, V117L
VL: B1 VL with M4L, V19A, G72R, L82V
notes: also called h1017-H3/L3 F(ab)
[1]
  Kd: 6.16 nM
  koff: 0.000207 s⁻¹
  kon: 33700 M⁻¹ s⁻¹
[2]
  Kd: 1.68 nM
  koff: 0.000194 s⁻¹
  kon: 117000 M⁻¹ s⁻¹

B20: CDB1017p (Fab, V domains shown)
VH: EVQLQQSGPELVKPGASVKISCKASRYTFTDYNLHWVKLSHEKSLEWIGFIYPYNGGTGYNQKFKNKAKLTVDYSSSTAYMELRSLTSVDAAVYYCARDHRYNEGVSFDYWGQGTTLTVSS
VL: NIVLTQSPASLAVSLGQRATISCRASESVDGFGNSFMNWYQQKPGQSPKLLIYLASNLESGVPARFSGSGSRTDFTLTIDPVEADDAATYYCQQNNEDPYTFGGGTKLEIK
notes: CDB1017p [sic]; also called CBD1017p; mouse CT8 F(ab)
[1]
  Kd: 1.19 nM
  koff: 7.76e-05 s⁻¹
  kon: 65100 M⁻¹ s⁻¹
